For this test, the target named is T1, mixed lineage pseudokinase ligand (human (endogenous in post-mortem brain grey matter)), Q8NB16.
T1 chain: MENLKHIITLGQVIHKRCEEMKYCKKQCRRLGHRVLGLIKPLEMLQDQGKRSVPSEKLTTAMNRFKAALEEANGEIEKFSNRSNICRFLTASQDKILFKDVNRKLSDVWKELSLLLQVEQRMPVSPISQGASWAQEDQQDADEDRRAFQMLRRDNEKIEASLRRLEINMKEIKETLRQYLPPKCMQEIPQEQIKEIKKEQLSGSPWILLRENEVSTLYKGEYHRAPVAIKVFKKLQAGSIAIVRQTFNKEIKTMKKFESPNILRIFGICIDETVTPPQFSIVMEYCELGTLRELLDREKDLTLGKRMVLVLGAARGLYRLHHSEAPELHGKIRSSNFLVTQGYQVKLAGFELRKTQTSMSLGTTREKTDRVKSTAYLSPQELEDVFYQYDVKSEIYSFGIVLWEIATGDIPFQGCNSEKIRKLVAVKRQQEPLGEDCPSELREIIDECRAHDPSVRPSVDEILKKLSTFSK
The experiment in a line: non-reducing gel electrophoresis and Western blot; MS grey matter extracted in native conditions (TBS, 0.1% Triton X-100); 3-8% Tris-acetate gels in non-reducing conditions; blot for MLKL. The note with it: remark: other sources report otherwise. (In general: A western blot detects proteins with antibodies after separation by electrophoresis.)

Consider one molecule from paper PMC7952371.

As usually defined, the stoichiometry N is a count of units in the complex or per binding partner.

B1: mixed lineage pseudokinase ligand, Q8NB16 1-471 (natural protein)
chain: T1 chain
B1 came in with a stoichiometry N of 4.
